Common to all, as to test: two-hybrid library CCNG1;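 note: natural log of median RNA to DNA barcode read ratio; higher means stronger binding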
For one assay, the target named is T1, P3A-bN.
T1 chain: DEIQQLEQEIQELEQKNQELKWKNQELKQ

The target of another assay is T2, P7A-bN.
T2 chain: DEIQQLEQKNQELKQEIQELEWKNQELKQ

The target in the next assay is T3, P4A-bN.
T3 chain: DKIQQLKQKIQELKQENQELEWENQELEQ

The target in the next assay is T4, P9A-bN.
T4 chain: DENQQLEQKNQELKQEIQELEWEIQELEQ

Another assay concerns the target T5, P8A-bN.
T5 chain: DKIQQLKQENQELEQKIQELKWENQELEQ

A further assay concerns the target T6, P5A-bN.
T6 chain: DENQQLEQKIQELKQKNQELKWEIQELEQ

Another assay deals with T7, P6A-bN.
T7 chain: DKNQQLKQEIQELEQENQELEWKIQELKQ

Another assay has as its target T8, P8SHb.
T8 chain: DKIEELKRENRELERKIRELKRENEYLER

The next assay addresses T9, P6SHb.
T9 chain: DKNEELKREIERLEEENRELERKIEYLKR

The target of another assay is T10, P7SHb.
T10 chain: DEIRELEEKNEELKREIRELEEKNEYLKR

Another assay deals with T11, P5SHb.
T11 chain: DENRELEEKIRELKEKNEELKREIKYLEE

The target of a further assay is T12, P9SHb.
T12 chain: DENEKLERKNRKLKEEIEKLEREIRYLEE

Another assay deals with T13, P4SHb.
T13 chain: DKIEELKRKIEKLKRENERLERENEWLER

The target of the next assay is T14, P5A.
T14 chain: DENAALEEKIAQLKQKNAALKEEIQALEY

The next assay addresses T15, P9A-bS.
T15 chain: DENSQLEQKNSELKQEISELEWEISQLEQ

In a further assay the target is T16, P3A-bS.
T16 chain: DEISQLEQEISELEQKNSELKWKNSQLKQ

For another assay, the target named is T17, P7A-bS.
T17 chain: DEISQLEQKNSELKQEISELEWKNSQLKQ

The next assay has as its target T18, P5A-bS.
T18 chain: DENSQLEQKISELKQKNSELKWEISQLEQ

For a further assay, the target named is T19, P8A-bS.
T19 chain: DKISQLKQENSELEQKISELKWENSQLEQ

The target in the next assay is T20, P4A-bS.
T20 chain: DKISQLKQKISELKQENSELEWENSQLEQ

The values below come from paper PMC10397247.

Take DEIQQLEQEIQELEQKNQELKWKNQELKQ [P3A-bN]: the interaction score was -0.693 with P3A-bN; 0.502 with P7A-bN; 1.79 with P4A-bN; 0.0484 in the assay with P9A-bN; -0.0492 with P8A-bN; -1.91 with P5A-bN. In addition, the interaction score with P6A-bN came to 0.0905.

Regarding DKIEELKRKIEKLKRENERLERENEWLER [P4SHb], the interaction score with P8SHb is -1.17; in the assay with P6SHb, 0.8; with P7SHb, -1.05; in the assay with P5SHb it was -0.773; with P9SHb, 0.746; with P4SHb, -0.574.

Consider DKIQQLKQKNQELKQKNQELKWKIQELKQ [P2A-bN], for which the interaction score in the assay with P3A-bN was -1.27; with P7A-bN, -2.31; with P5A it was -1.29; with P4A-bN it was -0.0603; in the assay with P9A-bN, -0.223; with P8A-bN, -0.172. In addition, the interaction score was -0.834 with P5A-bN and -0.329 with P6A-bN.

As to DEIQQLEQENQELEQENQELEWEIQELEQ [P1A-bN], the interaction score with P3A-bN was -1.29; with P7A-bN, -1.2; with P4A-bN it was -0.418; with P9A-bN it was -2.46; in the assay with P8A-bN, -0.492; with P5A-bN, -0.827. In addition, in the assay with P6A-bN, the interaction score was -0.545.

Turning to DEISQLEQEISELEQKNSELKWKNSQLKQ [P3A-bS], the interaction score in the assay with P9A-bS was 0.297; with P3A-bS, -1.29; in the assay with P7A-bS, -0.377; with P5A-bS, -0.938; with P8A-bS, -0.303; with P4A-bS, 1.45.

For DENRELEEKIRELKEKNEELKREIKYLEE [P5SHb], the interaction score with P8SHb was 0.218; in the assay with P6SHb it was 1.24; in the assay with P7SHb it was -0.193; with P5SHb, -0.373; in the assay with P9SHb, -0.0948.
